According to US20250327097A1, “ORGANISMS PRODUCING LESS CROTONIC ACID” (Global Bioenergies, priority 2021, published 2025):

Test system: 3-methylcrotonic acid
Format: biochemical, Yersinia frederiksenii
Design: key: “+” representing a low increase in activity; “++++” representing a high increase in activity

Row | Molecule | Activity relative to WT
1 | I283T-N285P-N287T-Q290E-S322T-N388M-K394R-C430A-L432F-L434W-S436N-dG462 (protein) MFLKSLREQINLLKRQGDLRIINRPVDSYLEAAAIIRRSTETKAPVPLMTNIKGYPGCSIVGGLAALSSNPEYPLSRVAMSLGLSTTASAQSIVQYLIDGLKKTPYLPVEIDSNSAPCKQNILRGEDASLAHFPIPQVHQHDGNRYVNTWGVFIVESPDGQWCNWSIQRVQYLNDRQMIALVFPSQHISDIWEEWVKIGKPMPYALVQGCEPIVPYIAGLPLLERNVNEAEYIGALYGKGIEVVKCETHDLRVPASSEVVIEGYFAITREGVEGPFGEFAGYTPPETSLEPILSITAISWQDDPIWPVVAEGKPVDEYHTCTGIGDAAAIQNVLLTANLPVSFVWVPLYSACHLMIVSINRHWRQTHPDLTSEQLTKKVGDVIHQTRMSIKLPRIVVLDDDVDPADTESLLWALATRIHPERKRYFYESAIFPWLNCYSEEERHNRKGKRVIIDALLPENHGAISSFDYAYPDDIKQRVLMHWETDFSHD | ++++
2 | N287I-N388M-K394R-C430N-L432F-L434W-S436N (protein) MFLKSLREQINLLKRQGDLRIINRPVDSYLEAAAIIRRSTETKAPVPLMTNIKGYPGCSIVGGLAALSSNPEYPLSRVAMSLGLSTTASAQSIVQYLIDGLKKTPYLPVEIDSNSAPCKQNILRGEDASLAHFPIPQVHQHDGNRYVNTWGVFIVESPDGQWCNWSIQRVQYLNDRQMIALVFPSQHISDIWEEWVKIGKPMPYALVQGCEPIVPYIAGLPLLERNVNEAEYIGALYGKGIEVVKCETHDLRVPASSEVVIEGYFAITREGVEGPFGEFAGYIPNEISLQPILSITAISWQDDPIWPVVAEGKPVDEYHTCSGIGDAAAIQNVLLTANLPVSFVWVPLYSACHLMIVSINRHWRQTHPDLTSEQLTKKVGDVIHQTRMSIKLPRIVVLDDDVDPADTESLLWALATRIHPERKRYFYESNIFPWLNCYSEEERHNRKGKRVIIDALLPENHGAISSFDYAYPDDIKQRVLMHWETDFSHD | +
3 | I283T-N285P-N287T-Q290E-S322T-N388M-K394R-dR422-C430A-L432F-L434W-S436N-dG462 (protein) MFLKSLREQINLLKRQGDLRIINRPVDSYLEAAAIIRRSTETKAPVPLMTNIKGYPGCSIVGGLAALSSNPEYPLSRVAMSLGLSTTASAQSIVQYLIDGLKKTPYLPVEIDSNSAPCKQNILRGEDASLAHFPIPQVHQHDGNRYVNTWGVFIVESPDGQWCNWSIQRVQYLNDRQMIALVFPSQHISDIWEEWVKIGKPMPYALVQGCEPIVPYIAGLPLLERNVNEAEYIGALYGKGIEVVKCETHDLRVPASSEVVIEGYFAITREGVEGPFGEFAGYTPPETSLEPILSITAISWQDDPIWPVVAEGKPVDEYHTCTGIGDAAAIQNVLLTANLPVSFVWVPLYSACHLMIVSINRHWRQTHPDLTSEQLTKKVGDVIHQTRMSIKLPRIVVLDDDVDPADTESLLWALATRIHPERKRYFYESAIFPWLNCYSEEERHNRKGKRVIIDALLPENHGAISSFDYAYPDDIKQRVLMHWETDFSHD | ++++
4 | I283T-P284D-N285M-N287T-S322T-N388M-K394R-C430A-L432F-L434W-S436N-G462T-A463P (protein) MFLKSLREQINLLKRQGDLRIINRPVDSYLEAAAIIRRSTETKAPVPLMTNIKGYPGCSIVGGLAALSSNPEYPLSRVAMSLGLSTTASAQSIVQYLIDGLKKTPYLPVEIDSNSAPCKQNILRGEDASLAHFPIPQVHQHDGNRYVNTWGVFIVESPDGQWCNWSIQRVQYLNDRQMIALVFPSQHISDIWEEWVKIGKPMPYALVQGCEPIVPYIAGLPLLERNVNEAEYIGALYGKGIEVVKCETHDLRVPASSEVVIEGYFAITREGVEGPFGEFAGYTDMETSLQPILSITAISWQDDPIWPVVAEGKPVDEYHTCTGIGDAAAIQNVLLTANLPVSFVWVPLYSACHLMIVSINRHWRQTHPDLTSEQLTKKVGDVIHQTRMSIKLPRIVVLDDDVDPADTESLLWALATRIHPERKRYFYESAIFPWLNCYSEEERHNRKGKRVIIDALLPENHTPISSFDYAYPDDIKQRVLMHWETDFSHD | ++++
5 | I283T-P284D-N285M-N287T-S322T-N388M-K394R-C430A-L432F-L434W-S436N-C437M-G462P-A463P (protein) MFLKSLREQINLLKRQGDLRIINRPVDSYLEAAAIIRRSTETKAPVPLMTNIKGYPGCSIVGGLAALSSNPEYPLSRVAMSLGLSTTASAQSIVQYLIDGLKKTPYLPVEIDSNSAPCKQNILRGEDASLAHFPIPQVHQHDGNRYVNTWGVFIVESPDGQWCNWSIQRVQYLNDRQMIALVFPSQHISDIWEEWVKIGKPMPYALVQGCEPIVPYIAGLPLLERNVNEAEYIGALYGKGIEVVKCETHDLRVPASSEVVIEGYFAITREGVEGPFGEFAGYTDMETSLQPILSITAISWQDDPIWPVVAEGKPVDEYHTCTGIGDAAAIQNVLLTANLPVSFVWVPLYSACHLMIVSINRHWRQTHPDLTSEQLTKKVGDVIHQTRMSIKLPRIVVLDDDVDPADTESLLWALATRIHPERKRYFYESAIFPWLNMYSEEERHNRKGKRVIIDALLPENHPPISSFDYAYPDDIKQRVLMHWETDFSHD | ++++
6 | I283T-P284D-i284aP-N287P-S322T-N388M-C430N-L432F-L434W-S436N-dG462 (protein) MFLKSLREQINLLKRQGDLRIINRPVDSYLEAAAIIRRSTETKAPVPLMTNIKGYPGCSIVGGLAALSSNPEYPLSRVAMSLGLSTTASAQSIVQYLIDGLKKTPYLPVEIDSNSAPCKQNILRGEDASLAHFPIPQVHQHDGNRYVNTWGVFIVESPDGQWCNWSIQRVQYLNDRQMIALVFPSQHISDIWEEWVKIGKPMPYALVQGCEPIVPYIAGLPLLERNVNEAEYIGALYGKGIEVVKCETHDLRVPASSEVVIEGYFAITREGVEGPFGEFAGYTDNEPSLQPILSITAISWQDDPIWPVVAEGKPVDEYHTCTGIGDAAAIQNVLLTANLPVSFVWVPLYSACHLMIVSINRHWRQTHPDLTSEQLTKKVGDVIHQTRMSIKLPKIVVLDDDVDPADTESLLWALATRIHPERKRYFYESNIFPWLNCYSEEERHNRKGKRVIIDALLPENHGAISSFDYAYPDDIKQRVLMHWETDFSHD | ++++
7 | I283T-P284D-N285I-N287T-i287aS-S322T-N388M-K394R-C430A-L432F-L434W-S436N-G462P-A463P (protein) MFLKSLREQINLLKRQGDLRIINRPVDSYLEAAAIIRRSTETKAPVPLMTNIKGYPGCSIVGGLAALSSNPEYPLSRVAMSLGLSTTASAQSIVQYLIDGLKKTPYLPVEIDSNSAPCKQNILRGEDASLAHFPIPQVHQHDGNRYVNTWGVFIVESPDGQWCNWSIQRVQYLNDRQMIALVFPSQHISDIWEEWVKIGKPMPYALVQGCEPIVPYIAGLPLLERNVNEAEYIGALYGKGIEVVKCETHDLRVPASSEVVIEGYFAITREGVEGPFGEFAGYTDIETSLQPILSITAISWQDDPIWPVVAEGKPVDEYHTCTGIGDAAAIQNVLLTANLPVSFVWVPLYSACHLMIVSINRHWRQTHPDLTSEQLTKKVGDVIHQTRMSIKLPRIVVLDDDVDPADTESLLWALATRIHPERKRYFYESAIFPWLNCYSEEERHNRKGKRVIIDALLPENHPPISSFDYAYPDDIKQRVLMHWETDFSHD | ++++
8 | I283T-P284D-N285M-N287T-S322T-N388M-K394R-C430A-L432F-L434W-S436N-G462P-A463P-I464P (protein) MFLKSLREQINLLKRQGDLRIINRPVDSYLEAAAIIRRSTETKAPVPLMTNIKGYPGCSIVGGLAALSSNPEYPLSRVAMSLGLSTTASAQSIVQYLIDGLKKTPYLPVEIDSNSAPCKQNILRGEDASLAHFPIPQVHQHDGNRYVNTWGVFIVESPDGQWCNWSIQRVQYLNDRQMIALVFPSQHISDIWEEWVKIGKPMPYALVQGCEPIVPYIAGLPLLERNVNEAEYIGALYGKGIEVVKCETHDLRVPASSEVVIEGYFAITREGVEGPFGEFAGYTDMETSLQPILSITAISWQDDPIWPVVAEGKPVDEYHTCTGIGDAAAIQNVLLTANLPVSFVWVPLYSACHLMIVSINRHWRQTHPDLTSEQLTKKVGDVIHQTRMSIKLPRIVVLDDDVDPADTESLLWALATRIHPERKRYFYESAIFPWLNCYSEEERHNRKGKRVIIDALLPENHPPPSSFDYAYPDDIKQRVLMHWETDFSHD | ++++
9 | I283T-P284D-N285M-N287T-L289H-S322T-N388M-K394R-C430A-L432F-L434W-S436N-G462P-A463P (protein) MFLKSLREQINLLKRQGDLRIINRPVDSYLEAAAIIRRSTETKAPVPLMTNIKGYPGCSIVGGLAALSSNPEYPLSRVAMSLGLSTTASAQSIVQYLIDGLKKTPYLPVEIDSNSAPCKQNILRGEDASLAHFPIPQVHQHDGNRYVNTWGVFIVESPDGQWCNWSIQRVQYLNDRQMIALVFPSQHISDIWEEWVKIGKPMPYALVQGCEPIVPYIAGLPLLERNVNEAEYIGALYGKGIEVVKCETHDLRVPASSEVVIEGYFAITREGVEGPFGEFAGYTDMETSHQPILSITAISWQDDPIWPVVAEGKPVDEYHTCTGIGDAAAIQNVLLTANLPVSFVWVPLYSACHLMIVSINRHWRQTHPDLTSEQLTKKVGDVIHQTRMSIKLPRIVVLDDDVDPADTESLLWALATRIHPERKRYFYESAIFPWLNCYSEEERHNRKGKRVIIDALLPENHPPISSFDYAYPDDIKQRVLMHWETDFSHD | ++++
10 | I283T-N285P-N287T-Q290E-S322T-N388M-K394R-C430A-L432F-L434W-S436N-dA463 (protein) MFLKSLREQINLLKRQGDLRIINRPVDSYLEAAAIIRRSTETKAPVPLMTNIKGYPGCSIVGGLAALSSNPEYPLSRVAMSLGLSTTASAQSIVQYLIDGLKKTPYLPVEIDSNSAPCKQNILRGEDASLAHFPIPQVHQHDGNRYVNTWGVFIVESPDGQWCNWSIQRVQYLNDRQMIALVFPSQHISDIWEEWVKIGKPMPYALVQGCEPIVPYIAGLPLLERNVNEAEYIGALYGKGIEVVKCETHDLRVPASSEVVIEGYFAITREGVEGPFGEFAGYTPPETSLEPILSITAISWQDDPIWPVVAEGKPVDEYHTCTGIGDAAAIQNVLLTANLPVSFVWVPLYSACHLMIVSINRHWRQTHPDLTSEQLTKKVGDVIHQTRMSIKLPRIVVLDDDVDPADTESLLWALATRIHPERKRYFYESAIFPWLNCYSEEERHNRKGKRVIIDALLPENHGAISSFDYAYPDDIKQRVLMHWETDFSHD | ++++
